Residue numbers refer to the chain shown, from its start. Blank lines part the entries; values can stand above or below the binder they belong to.
Key:
[1] = target: T1, mouse CD137 protein (Biacore) (mouse, UniProt P20334 24-178, limits assumed); assay: SPR Biacore
T1 construct: Construct used as SPR analyte not described
T1 sequence: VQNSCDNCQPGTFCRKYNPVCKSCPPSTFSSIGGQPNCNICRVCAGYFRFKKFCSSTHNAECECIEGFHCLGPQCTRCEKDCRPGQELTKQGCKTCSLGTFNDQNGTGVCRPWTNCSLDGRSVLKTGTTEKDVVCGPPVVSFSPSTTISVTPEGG

[2] = target: T2, rat CD137 on the cell surface (rat, UniProt Q4W8J3 24-258); assay: flow cytometry, HEK293F cells expressing CD137 [Cont.]
T2 sequence: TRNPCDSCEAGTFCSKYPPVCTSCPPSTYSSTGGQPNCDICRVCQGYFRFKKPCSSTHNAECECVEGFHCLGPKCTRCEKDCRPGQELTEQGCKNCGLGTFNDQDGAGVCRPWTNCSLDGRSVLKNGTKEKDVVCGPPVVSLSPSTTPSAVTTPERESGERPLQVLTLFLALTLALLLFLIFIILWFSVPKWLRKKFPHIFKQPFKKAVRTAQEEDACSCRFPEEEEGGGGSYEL

[3] = target: T3, full-length mouse CD137 on the cell surface (mouse, UniProt P20334 24-178); assay: as above
T3 sequence: T1 sequence

CD95 [4] = target: T4, CD95; assay: flow cytometry, HEK293F cells expressing the receptor [Cont.]
T4 chain: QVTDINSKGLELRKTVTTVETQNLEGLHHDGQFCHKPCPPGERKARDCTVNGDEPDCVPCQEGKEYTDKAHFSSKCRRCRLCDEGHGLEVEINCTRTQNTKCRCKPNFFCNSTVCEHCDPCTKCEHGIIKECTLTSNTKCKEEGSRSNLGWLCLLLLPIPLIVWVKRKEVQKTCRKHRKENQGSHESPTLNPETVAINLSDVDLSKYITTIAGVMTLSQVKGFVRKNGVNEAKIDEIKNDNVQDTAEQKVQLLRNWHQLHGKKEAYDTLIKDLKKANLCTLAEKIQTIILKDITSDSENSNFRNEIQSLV

CD120a [5] = target: T5, CD120a; assay: as above
T5 chain: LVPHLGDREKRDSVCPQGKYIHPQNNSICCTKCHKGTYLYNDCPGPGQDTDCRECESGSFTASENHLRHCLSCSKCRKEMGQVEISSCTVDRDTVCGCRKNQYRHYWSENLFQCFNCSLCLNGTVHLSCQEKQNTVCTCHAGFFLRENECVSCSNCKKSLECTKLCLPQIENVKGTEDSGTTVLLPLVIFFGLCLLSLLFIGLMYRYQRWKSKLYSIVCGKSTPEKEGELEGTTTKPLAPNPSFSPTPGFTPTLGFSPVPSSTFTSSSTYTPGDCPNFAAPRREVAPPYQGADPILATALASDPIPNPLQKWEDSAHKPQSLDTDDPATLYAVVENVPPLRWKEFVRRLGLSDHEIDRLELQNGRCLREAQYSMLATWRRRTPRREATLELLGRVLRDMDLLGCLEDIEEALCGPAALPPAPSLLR

[6] = target: T6, human CD137-His6 (Sino Biological #10041-H08H) (human, UniProt Q07011 24-186); assay: SPR Biacore, IgG captured; Table 3 run, IgG captured by anti-human Fc; Table 1b gives 3.8E-08 M from a separate measurement
T6 construct: Bought; also called human CD137 protein; not shown: His6 tag

Hu_T35A = target: T7, Hu_T35A (human, UniProt Q07011 18-255); assay: flow cytometry, HEK293F
T7 construct: On HEK293F; also called human CD137 T35A
T7 sequence (Q07011 18-255 T35A): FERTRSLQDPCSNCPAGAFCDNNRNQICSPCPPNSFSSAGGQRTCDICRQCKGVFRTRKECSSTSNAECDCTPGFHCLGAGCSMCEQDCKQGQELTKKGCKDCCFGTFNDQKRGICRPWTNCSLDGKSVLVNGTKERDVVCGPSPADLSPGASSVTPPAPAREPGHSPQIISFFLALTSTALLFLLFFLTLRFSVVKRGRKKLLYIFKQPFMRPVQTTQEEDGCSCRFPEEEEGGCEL

Hu_F36A = target: T8, Hu_F36A (human, UniProt Q07011 18-255); assay: flow cytometry, HEK293F
T8 construct: On HEK293F; also called human CD137 F36A
T8 sequence (Q07011 18-255 F36A): as the sequence (Q07011 18-255 T35A) above, with A18T, F19A counted along it

Hu_F53A = target: T9, Hu_F53A (human, UniProt Q07011 18-255); assay: flow cytometry, HEK293F
T9 construct: On HEK293F; also called human CD137 F53A
T9 sequence (Q07011 18-255 F53A): as the sequence (Q07011 18-255 T35A) above, with A18T, F36A counted along it

Hu_R66A = target: T10, Hu_R66A (human, UniProt Q07011 18-255); assay: flow cytometry, HEK293F
T10 construct: On HEK293F; also called human CD137 R66A

Hu_F72A = target: T11, Hu_F72A (human, UniProt Q07011 18-255); assay: flow cytometry, HEK293F
T11 construct: On HEK293F; also called human CD137 F72A
T11 sequence (Q07011 18-255 F72A): as the sequence (Q07011 18-255 T35A) above, with A18T, F55A counted along it

Hu_N83A = target: T12, Hu_N83A (human, UniProt Q07011 18-255); assay: flow cytometry, HEK293F
T12 construct: On HEK293F; also called human CD137 N83A
T12 sequence (Q07011 18-255 N83A): as the sequence (Q07011 18-255 T35A) above, with A18T, N66A counted along it

Hu_F92A = target: T13, Hu_F92A (human, UniProt Q07011 18-255); assay: flow cytometry, HEK293F
T13 construct: On HEK293F; also called human CD137 F92A

[7] = target: T6, human CD137-His6 (Sino Biological …); assay: SPR Biacore, IgG captured
[8] = target: T1, mouse CD137 protein (Biacore); assay: SPR Biacore, IgG captured
[9] = target: T14, CD27 overexpressed on HEK293F cells (UniProt P26842 20-260, limits assumed); assay: flow cytometry, HEK293F cells expressing the receptor, antibody 100 nM
T14 construct: whole, on cells
T14 sequence (looked up): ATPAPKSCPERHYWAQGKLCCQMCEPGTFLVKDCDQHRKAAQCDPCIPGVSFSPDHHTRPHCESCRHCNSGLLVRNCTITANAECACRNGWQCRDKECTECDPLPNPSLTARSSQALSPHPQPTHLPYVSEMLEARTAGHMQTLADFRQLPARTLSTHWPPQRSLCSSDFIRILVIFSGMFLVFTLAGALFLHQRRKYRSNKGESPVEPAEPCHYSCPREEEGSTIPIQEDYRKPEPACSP

CD95 [10] = target: T4, CD95; assay: flow cytometry, HEK293F cells expressing the receptor, antibody 100 nM [Cont.]
CD120a [11] = target: T5, CD120a; assay: as above

- binding result [1]: no binding
- Kd [6]: 24.2 nM
B1: AG10059 (antibody, human IgG4 S228P, kappa, V domains shown)
VH: EVQLVESGGGLVQPGGSLRLSCAASGYSITSGHYWAWIRQAPGKGLEWVSSISGYGSTTYYADSVKGRFTISRDNSKNTLYLQLNSLRAEDTAVYYCARGGSDAVLGDWFAYWGQGTLVTVSS
VL: DIQLTQSPSSLSASVGDRVTITCRASQGIGSFLAWYQQKPGKAPKLLIYDASNLETGVPSRFSGSGSGTDFTLTISSLQPEDFATYYCQQGYYLWTFGQGTKVEIKR
- binding result [2]: no binding (tested: 100 nM (text paragraph 220))
- binding result [3]: no binding (tested: 100 nM (text paragraph 220))
- binding result (CD95 [4]): no binding (tested: 100 nM (text paragraph 226))
- binding result (CD120a [5]): no binding (tested: 100 nM (text paragraph 226))

- binding result (Hu_T35A): no binding
- binding result (Hu_F36A): no binding
- binding result (Hu_F53A): no binding
- binding result (Hu_R66A): no binding
- binding result (Hu_F72A): no binding
- binding result (Hu_N83A): no binding
- binding result (Hu_F92A): no binding
- Kd [7]: 5.9 nM
- Kd [8]: 15.2 nM
- Mean [9]: 6660
- Mean (CD95 [10]): 5370
- Mean (CD120a [11]): 8070
B2: AG10058 (antibody, human IgG4 S228P, kappa, V domains shown)
VH: EVQLVESGGGLVQPGGSLRLSCAASGFSLSTSGVGVGWIRQAPGKGLEWLALIDWDDDKYYSPSLKSRLTISRDNSKNTLYLQLNSLRAEDTAVYYCARGGSDTVLGDWFAYWGQGTLVTVSS
VL: B1 VL with G28S, I29V, G30S, S31P, F32Y, N53S, T56S, Y93S

Reference: US20190055314A1 (ADAGENE, published 2019)
